Measurements from article PMC11931385, “Structural and functional analysis of cancer-associated missense variants in the retinoblastoma protein pocket domain” (The Journal of Biological Chemistry, 2025).
No end group written: not given here. TMR = tetramethyl rhodamine dye

T1: Rb^P T638S (human, UniProt P06400 380-788, T638S)
T1 construct: also called variant 45
T1 sequence (looked up): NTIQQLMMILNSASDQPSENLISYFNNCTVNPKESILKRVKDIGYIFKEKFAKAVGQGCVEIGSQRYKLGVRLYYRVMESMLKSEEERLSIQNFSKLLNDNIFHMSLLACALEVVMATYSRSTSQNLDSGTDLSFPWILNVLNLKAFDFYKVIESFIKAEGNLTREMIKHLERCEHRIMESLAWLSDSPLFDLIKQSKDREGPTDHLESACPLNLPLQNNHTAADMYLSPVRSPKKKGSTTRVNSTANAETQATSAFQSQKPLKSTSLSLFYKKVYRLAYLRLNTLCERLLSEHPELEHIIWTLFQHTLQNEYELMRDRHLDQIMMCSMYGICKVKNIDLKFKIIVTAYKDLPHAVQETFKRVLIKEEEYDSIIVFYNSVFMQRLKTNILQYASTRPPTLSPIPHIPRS

T2: Rb^P S463L (human, UniProt P06400 380-788, S463L)
T2 construct: also called variant 10
T2 sequence (looked up): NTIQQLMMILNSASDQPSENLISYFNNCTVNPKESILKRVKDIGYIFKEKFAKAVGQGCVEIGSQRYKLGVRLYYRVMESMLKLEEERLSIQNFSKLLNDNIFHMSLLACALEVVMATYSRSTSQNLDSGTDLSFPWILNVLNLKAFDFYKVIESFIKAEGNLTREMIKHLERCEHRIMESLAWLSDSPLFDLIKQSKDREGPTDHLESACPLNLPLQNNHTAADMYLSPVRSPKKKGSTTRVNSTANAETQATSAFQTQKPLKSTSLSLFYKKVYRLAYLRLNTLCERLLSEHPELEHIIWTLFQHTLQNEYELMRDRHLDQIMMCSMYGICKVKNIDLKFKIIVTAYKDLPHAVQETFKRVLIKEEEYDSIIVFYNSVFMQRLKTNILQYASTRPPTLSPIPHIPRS

T3: Rb^P M695I (human, UniProt P06400 380-788, M695I)
T3 construct: also called variant 61
T3 sequence (looked up): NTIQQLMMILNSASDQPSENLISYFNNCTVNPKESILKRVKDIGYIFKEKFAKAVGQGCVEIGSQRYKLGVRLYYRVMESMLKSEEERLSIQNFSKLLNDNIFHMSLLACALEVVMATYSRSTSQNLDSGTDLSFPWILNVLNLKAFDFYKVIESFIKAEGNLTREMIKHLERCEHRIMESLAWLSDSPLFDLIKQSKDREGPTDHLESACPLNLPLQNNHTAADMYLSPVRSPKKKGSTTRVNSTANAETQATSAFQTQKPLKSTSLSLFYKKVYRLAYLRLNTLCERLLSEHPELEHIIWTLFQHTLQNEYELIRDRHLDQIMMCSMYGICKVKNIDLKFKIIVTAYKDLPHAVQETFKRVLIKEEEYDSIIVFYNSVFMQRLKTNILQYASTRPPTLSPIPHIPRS

T4: Rb^P E533K (human, UniProt P06400 380-788, E533K)
T4 construct: also called variant 22
T4 sequence (looked up): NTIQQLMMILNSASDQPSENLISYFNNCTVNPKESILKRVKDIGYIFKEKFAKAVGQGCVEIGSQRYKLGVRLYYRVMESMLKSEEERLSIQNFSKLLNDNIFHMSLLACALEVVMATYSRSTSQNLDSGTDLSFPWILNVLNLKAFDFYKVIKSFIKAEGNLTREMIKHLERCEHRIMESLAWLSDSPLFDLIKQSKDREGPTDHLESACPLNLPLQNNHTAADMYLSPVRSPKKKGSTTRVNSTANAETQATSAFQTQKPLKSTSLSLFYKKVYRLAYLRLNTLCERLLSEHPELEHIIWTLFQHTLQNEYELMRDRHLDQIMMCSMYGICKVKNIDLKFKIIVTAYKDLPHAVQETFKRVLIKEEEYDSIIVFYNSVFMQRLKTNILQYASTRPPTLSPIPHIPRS

T5: Rb^P K462E (human, UniProt P06400 380-788, K462E)
T5 construct: also called variant 8
T5 sequence (looked up): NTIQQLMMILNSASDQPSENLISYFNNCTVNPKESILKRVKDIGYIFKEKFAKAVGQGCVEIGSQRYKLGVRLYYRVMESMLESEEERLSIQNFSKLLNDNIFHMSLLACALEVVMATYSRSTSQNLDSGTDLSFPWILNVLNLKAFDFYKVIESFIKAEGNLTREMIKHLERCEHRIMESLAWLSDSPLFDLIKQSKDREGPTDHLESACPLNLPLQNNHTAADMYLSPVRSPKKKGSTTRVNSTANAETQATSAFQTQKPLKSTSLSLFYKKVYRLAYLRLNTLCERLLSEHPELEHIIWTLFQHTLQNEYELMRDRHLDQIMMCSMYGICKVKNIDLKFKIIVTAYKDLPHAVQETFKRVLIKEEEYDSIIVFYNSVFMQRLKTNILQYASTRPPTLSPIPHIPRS


How the values were obtained:
Test in all cases: fluorescence polarisation; 25 °C; unlabeled Rb^P titrated against 1.5 nM TMR-E2F1^TD or 7.5 nM TMR-E7^LxCxE; 25 mM Tris pH 8.0, 200 mM NaCl, 1 mM DTT, 0.1% Tween-20; 2 min incubation; quadratic fit; apparent Kd for the variants, Kd for WT
Settings in all cases: both partners purified
Rb^P T638S = biological target: T1, Rb^P T638S
Rb^P S463L = biological target: T2, Rb^P S463L
Rb^P M695I = biological target: T3, Rb^P M695I
Rb^P E533K = biological target: T4, Rb^P E533K
Rb^P K462E = biological target: T5, Rb^P K462E

| Binder | Kd (Rb^P T638S) [nM] | Kd (Rb^P S463L) [nM] | Kd (Rb^P M695I) [nM] | Kd (Rb^P E533K) [nM] | Kd (Rb^P K462E) [nM] |
| --- | --- | --- | --- | --- | --- |
| {TMR}-GEGIRDLFDCDFGDLTPLD (also called E2F^TD; source: synthetic peptide, bought: GenScript) [TMR-E2F1^TD, peptide of the E2F1 transactivation domain] | 14 | 26 | 43 | 810 | 27 |
| DLYCYEQLN (also: TMR label, position not given here, source: synthetic peptide, bought: GenScript) [TMR-E7^LxCxE, LxCxE peptide of the E7 oncoprotein from HPV] | 7 | 10 | 11 | 6 | 11 |
